Reference: IntAct's records for PubMed 36931259

B1: 14-3-3 protein sigma (Homo sapiens), P31947 (parent)
chain: MERASLIQKAKLAEQAERYEDMAAFMKGAVEKGEELSCEERNLLSVAYKNVVGGQRAAWRVLSSIEQKSNEEGSEEKGPEVREYREKVETELQGVCDTVLGLLDSHLIKEAGDAESRVFYLKMKGDYYRYLAEVATGDDKKRIIDSARSAYQEAMDISKKEMPPTNPIRLGLALNFSVFHYEIANSPEEAISLAKTTFDEAMADLHTLSEDSYKDSTLIMQLLRDNLTLWTADNAGEEGGEAPQEPQS
partner: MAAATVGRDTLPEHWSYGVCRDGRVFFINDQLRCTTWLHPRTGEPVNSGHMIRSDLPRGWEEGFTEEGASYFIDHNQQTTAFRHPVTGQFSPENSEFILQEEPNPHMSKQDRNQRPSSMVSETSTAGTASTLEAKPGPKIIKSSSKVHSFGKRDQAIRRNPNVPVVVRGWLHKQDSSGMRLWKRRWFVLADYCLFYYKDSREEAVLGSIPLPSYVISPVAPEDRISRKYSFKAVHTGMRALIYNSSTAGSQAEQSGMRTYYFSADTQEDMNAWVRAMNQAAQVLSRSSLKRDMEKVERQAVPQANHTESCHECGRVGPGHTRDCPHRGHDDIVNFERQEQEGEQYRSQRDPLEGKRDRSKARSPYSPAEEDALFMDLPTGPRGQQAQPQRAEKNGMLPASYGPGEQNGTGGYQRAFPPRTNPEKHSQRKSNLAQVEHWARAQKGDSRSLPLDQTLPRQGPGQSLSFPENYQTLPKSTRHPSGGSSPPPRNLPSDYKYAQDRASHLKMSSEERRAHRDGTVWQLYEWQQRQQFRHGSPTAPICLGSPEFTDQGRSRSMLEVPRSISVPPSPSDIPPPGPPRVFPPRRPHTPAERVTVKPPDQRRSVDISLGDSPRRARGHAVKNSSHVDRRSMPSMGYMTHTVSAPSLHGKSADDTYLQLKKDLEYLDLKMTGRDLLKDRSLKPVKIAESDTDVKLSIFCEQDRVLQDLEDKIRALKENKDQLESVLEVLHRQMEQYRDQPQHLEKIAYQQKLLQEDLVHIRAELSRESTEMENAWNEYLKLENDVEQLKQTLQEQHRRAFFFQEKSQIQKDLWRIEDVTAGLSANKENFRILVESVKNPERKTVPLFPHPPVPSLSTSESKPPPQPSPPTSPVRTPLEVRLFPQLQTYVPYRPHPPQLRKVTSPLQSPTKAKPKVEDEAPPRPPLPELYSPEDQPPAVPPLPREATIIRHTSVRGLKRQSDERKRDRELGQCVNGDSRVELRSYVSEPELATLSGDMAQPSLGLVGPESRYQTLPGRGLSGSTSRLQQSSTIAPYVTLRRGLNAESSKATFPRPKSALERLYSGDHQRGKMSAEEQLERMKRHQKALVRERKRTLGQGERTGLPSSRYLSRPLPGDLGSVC
B2: 14-3-3 protein sigma (Homo sapiens), P31947 (parent)
chain: B1 chain
partner: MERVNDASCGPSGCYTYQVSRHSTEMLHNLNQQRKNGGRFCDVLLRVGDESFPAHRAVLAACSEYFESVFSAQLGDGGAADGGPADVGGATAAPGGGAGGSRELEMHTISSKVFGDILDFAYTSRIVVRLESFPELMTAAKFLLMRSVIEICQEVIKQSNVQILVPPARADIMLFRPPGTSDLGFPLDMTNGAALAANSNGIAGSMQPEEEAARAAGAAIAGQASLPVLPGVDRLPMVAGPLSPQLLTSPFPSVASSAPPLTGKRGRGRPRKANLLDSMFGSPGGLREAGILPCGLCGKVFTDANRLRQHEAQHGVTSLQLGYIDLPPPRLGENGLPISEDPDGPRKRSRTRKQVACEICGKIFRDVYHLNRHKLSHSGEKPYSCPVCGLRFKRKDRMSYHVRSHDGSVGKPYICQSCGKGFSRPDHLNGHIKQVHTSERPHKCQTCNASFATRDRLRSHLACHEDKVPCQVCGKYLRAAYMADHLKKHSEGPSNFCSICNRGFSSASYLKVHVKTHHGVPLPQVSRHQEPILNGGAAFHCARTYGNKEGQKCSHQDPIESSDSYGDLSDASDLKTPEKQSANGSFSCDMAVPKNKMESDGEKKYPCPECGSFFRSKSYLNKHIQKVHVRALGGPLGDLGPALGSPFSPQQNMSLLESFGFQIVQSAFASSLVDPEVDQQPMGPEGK
B3: 14-3-3 protein sigma (Homo sapiens), P31947 (parent)
chain: B1 chain
partner: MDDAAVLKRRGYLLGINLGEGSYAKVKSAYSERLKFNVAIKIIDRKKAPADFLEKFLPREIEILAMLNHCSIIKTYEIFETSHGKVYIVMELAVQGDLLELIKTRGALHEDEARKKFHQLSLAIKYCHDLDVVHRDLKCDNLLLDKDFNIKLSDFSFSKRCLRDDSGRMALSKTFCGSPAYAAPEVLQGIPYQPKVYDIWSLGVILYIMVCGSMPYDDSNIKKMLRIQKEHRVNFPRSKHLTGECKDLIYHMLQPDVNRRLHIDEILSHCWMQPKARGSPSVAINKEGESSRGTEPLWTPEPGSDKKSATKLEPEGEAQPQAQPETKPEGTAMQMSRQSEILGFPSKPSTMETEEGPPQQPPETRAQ
B4: 14-3-3 protein sigma (Homo sapiens), P31947 (parent)
chain: B1 chain
partner: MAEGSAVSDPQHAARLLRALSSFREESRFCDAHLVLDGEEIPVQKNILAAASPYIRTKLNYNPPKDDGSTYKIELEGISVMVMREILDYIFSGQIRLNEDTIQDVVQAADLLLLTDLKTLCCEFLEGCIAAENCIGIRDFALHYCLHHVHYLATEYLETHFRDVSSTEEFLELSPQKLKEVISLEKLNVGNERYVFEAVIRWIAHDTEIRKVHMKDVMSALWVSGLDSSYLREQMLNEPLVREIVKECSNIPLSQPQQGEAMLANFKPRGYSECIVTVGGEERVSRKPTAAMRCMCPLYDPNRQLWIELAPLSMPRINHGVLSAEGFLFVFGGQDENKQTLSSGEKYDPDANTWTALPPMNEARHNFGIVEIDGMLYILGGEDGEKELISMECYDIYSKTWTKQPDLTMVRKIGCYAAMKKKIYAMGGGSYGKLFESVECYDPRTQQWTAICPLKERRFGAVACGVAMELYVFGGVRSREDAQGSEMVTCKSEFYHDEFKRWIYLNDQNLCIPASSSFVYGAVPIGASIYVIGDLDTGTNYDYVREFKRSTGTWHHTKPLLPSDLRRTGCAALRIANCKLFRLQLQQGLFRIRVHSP
B5: 14-3-3 protein sigma (Homo sapiens), P31947 (parent)
chain: B1 chain
partner: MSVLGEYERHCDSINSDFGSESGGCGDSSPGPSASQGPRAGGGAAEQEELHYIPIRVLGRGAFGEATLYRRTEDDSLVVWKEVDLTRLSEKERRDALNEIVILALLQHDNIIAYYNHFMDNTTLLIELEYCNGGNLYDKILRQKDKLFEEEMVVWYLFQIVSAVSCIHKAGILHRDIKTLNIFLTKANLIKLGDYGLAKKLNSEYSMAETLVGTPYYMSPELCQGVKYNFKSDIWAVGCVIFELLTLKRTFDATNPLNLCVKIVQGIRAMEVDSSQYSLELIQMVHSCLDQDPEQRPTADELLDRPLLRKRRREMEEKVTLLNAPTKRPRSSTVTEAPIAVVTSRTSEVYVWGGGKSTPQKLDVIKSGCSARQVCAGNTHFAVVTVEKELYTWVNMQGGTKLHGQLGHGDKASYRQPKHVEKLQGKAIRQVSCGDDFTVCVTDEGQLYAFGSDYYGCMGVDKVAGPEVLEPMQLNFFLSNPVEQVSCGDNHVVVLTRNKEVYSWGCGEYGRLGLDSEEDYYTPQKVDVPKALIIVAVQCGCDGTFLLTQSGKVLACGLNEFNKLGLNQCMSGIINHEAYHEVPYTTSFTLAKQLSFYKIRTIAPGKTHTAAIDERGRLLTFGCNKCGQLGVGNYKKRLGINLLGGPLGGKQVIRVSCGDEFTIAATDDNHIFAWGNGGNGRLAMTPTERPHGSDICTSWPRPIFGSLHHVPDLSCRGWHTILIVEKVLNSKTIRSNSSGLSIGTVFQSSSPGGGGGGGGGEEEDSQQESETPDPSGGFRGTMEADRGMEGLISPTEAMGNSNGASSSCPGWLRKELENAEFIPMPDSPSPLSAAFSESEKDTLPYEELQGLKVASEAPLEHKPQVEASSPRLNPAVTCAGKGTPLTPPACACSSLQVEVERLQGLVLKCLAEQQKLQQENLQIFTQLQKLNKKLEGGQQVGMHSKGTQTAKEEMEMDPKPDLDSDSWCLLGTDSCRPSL
B6: 14-3-3 protein sigma (Homo sapiens), P31947 (parent)
chain: B1 chain
partner: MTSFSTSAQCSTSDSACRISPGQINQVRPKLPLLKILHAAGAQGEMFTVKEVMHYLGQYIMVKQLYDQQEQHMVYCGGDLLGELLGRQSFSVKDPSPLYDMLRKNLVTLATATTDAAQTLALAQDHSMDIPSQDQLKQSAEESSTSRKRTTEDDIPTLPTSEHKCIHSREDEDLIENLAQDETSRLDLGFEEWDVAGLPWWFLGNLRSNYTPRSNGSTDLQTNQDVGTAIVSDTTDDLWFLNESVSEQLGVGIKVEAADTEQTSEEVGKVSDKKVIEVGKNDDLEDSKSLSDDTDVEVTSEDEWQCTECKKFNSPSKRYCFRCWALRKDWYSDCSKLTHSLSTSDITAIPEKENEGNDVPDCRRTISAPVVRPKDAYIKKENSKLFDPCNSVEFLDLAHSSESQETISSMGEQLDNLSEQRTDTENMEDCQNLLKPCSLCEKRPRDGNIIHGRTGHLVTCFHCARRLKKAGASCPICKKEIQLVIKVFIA

Variants of: B1
Settings: with pkha7_human PLEKHA7, Q6IQ23

effect of a mutation on the interaction	Variant
decreasing interaction strength	K49E;R56E;V178D

Variants of: B2
Settings: with patz1_human PATZ1, Q9HBE1

effect of a mutation on the interaction	Variant
decreasing interaction strength	K49E;R56E;V178D

Variants of: B3
Settings: with tssk1_human TSSK1B

effect of a mutation on the interaction	Variant
decreasing interaction strength	K49E;R56E;V178D

Variants of: B4
Settings: with gan_human GAN

effect of a mutation on the interaction	Variant
decreasing interaction strength	K49E;R56E;V178D

Variants of: B5
Settings: with nek9_human NEK9, Q8TD19

Variant	effect of a mutation on the interaction
K49E;R56E;V178D	decreasing interaction strength

Variants of: B6
Settings: with mdm4_human MDM4, O15151

effect of a mutation on the interaction	Variant
decreasing interaction strength	K49E;R56E;V178D
